T1: recombinant human FAP (human, UniProt Q12884 26-760)
T1 construct: Soluble analyte in SPR; The description calls FAP a homodimer; also called rhFAP
T1 sequence (looked up): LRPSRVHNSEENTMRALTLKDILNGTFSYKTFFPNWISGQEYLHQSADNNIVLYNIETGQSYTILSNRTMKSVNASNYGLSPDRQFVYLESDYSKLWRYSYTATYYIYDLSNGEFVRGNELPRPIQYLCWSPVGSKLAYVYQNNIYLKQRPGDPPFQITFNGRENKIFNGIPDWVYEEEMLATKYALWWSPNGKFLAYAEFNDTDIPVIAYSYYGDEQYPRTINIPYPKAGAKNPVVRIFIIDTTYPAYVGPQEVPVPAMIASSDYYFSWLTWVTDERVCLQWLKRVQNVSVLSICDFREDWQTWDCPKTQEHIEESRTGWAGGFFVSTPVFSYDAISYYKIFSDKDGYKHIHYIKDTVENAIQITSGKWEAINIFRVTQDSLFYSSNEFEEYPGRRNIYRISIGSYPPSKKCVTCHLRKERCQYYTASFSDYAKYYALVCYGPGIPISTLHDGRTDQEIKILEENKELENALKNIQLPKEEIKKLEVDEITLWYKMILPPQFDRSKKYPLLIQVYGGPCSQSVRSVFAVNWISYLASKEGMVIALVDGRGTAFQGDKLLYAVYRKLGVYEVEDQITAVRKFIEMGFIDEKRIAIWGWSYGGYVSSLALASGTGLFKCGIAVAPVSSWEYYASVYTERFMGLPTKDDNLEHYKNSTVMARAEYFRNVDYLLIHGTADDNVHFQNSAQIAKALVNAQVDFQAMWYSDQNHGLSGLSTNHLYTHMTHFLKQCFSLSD


Molecular target: T1, recombinant human FAP
Assay: SPR, captured by anti-human IgG (Fc), human FAP analyte, 1:1 binding model
Protocol: Bindings of T1.04, T1.05, T1.06, T1.07, T1.08, T1.09, T1.10 and T1.11 to recombinant human […] were identified by surface plasmon resonance (SPR). The surface of the CM5 chip was activated with a 1:1 mixture of […] (N-hydroxysuccinimide) and […] (1-Ethyl-3-(3-dimethylaminopropyl) carbodiimide), and 25 μg/ml of anti-human IgG (Fc) antibody was immobilized for 400 seconds at a rate of 10 μl/min. The remaining active ester groups were blocked with 1 M ethanolamine.
Specifically, human proteins T1.04, T1.05, T1.06, T1.07, T1.08, T1.09, T1.10 and T1.11 were diluted to 1 μg/ml, 1 μg/ml, 1 μg/ml, 1 μg/ml, 0.5 μg/ml, 0.5 μg/ml, 0.5 μg/ml, and 1 μg/ml, respectively, and reacted on a CM5 chip immobilized with an anti-human IgG (Fc) antibody. The recombinant human FAP was diluted to 25 nM or 50 nM in 1×HBS-EP+buffer solution and diluted by serial dilution. The diluted recombinant human FAP was reacted at a rate of 30 μl/min. The association and dissociation times were 180 seconds and 400 seconds, respectively. After the dissociation, stabilization was performed for 60 seconds, and then a regeneration was performed for 30 seconds with a 10 mM glycine pH 1.5 solution at a rate of 30 μl/min.

Kd [nM] | koff [s⁻¹] | kon [M⁻¹ s⁻¹] | Binder
0.479 | 7.48e-05 | 156000 | T1.10 (anti-hu FAP/anti-hu FAP-hu IL-12, hu IgG1 DANG (2 + 1)) (antibody, single-chain IL-12 at the C-terminus of the hole heavy chain) heavy 1: QVQLVQSGAEVKKPGASVKVSCKTSRYTFTEYTIHWVRQAPGQRLEWIGGINPNNGIPNYNQKFKGRVTITVDTSASTAYMELSSLRSEDTAVYYCARRRIAYGYDEGHAMDYWGQGTLVTVSSASTKGPSVFPLAPSSKSTSGGTAALGCLVKDYFPEPVTVSWNSGALTSGVHTFPAVLQSSGLYSLSSVVTVPSSSLGTQTYICNVNHKPSNTKVDKKVEPKSCDKTHTCPPCPAPELLGGPSVFLFPPKPKDTLMISRTPEVTCVVVAVSHEDPEVKFNWYVDGVEVHNAKTKPREEQYGSTYRVVSVLTVLHQDWLNGKEYKCKVSNKALPAPIEKTISKAKGQPREPQVYTLPPSRDELTKNQVSLWCLVKGFYPSDIAVEWESNGQPENNYKTTPPVLDSDGSFFLYSKLTVDKSRWQQGNVFSCSVMHEALHNHYTQKSLSLSPGK heavy 2: QVQLVQSGAEVKKPGASVKVSCKTSRYTFTEYTIHWVRQAPGQRLEWIGGINPNNGIPNYNQKFKGRVTITVDTSASTAYMELSSLRSEDTAVYYCARRRIAYGYDEGHAMDYWGQGTLVTVSSASTKGPSVFPLAPSSKSTSGGTAALGCLVKDYFPEPVTVSWNSGALTSGVHTFPAVLQSSGLYSLSSVVTVPSSSLGTQTYICNVNHKPSNTKVDKKVEPKSCDKTHTCPPCPAPELLGGPSVFLFPPKPKDTLMISRTPEVTCVVVAVSHEDPEVKFNWYVDGVEVHNAKTKPREEQYGSTYRVVSVLTVLHQDWLNGKEYKCKVSNKALPAPIEKTISKAKGQPREPQVYTLPPSRDELTKNQVSLSCAVKGFYPSDIAVEWESNGQPENNYKTTPPVLDSDGSFFLVSKLTVDKSRWQQGNVFSCSVMHEALHNHYTQKSLSLSPGGGGGSGGGGSGGGGSIWELKKDVYVVELDWYPDAPGEMVVLTCDTPEEDGITWTLDQSSEVLGSGKTLTIQVKEFGDAGQYTCHKGGEVLSHSLLLLHKKEDGIWSTDILKDQKEPKNKTFLRCEAKNYSGRFTCWWLTTISTDLTFSVKSSRGSSDPQGVTCGAATLSAERVRGDNKEYEYSVECQEDSACPAAEESLPIEVMVDAVHKLKYENYTSSFFIRDIIKPDPPKNLQLKPLKNSRQVEVSWEYPDTWSTPHSYFSLTFCVQVQGKSKREKKDRVFTDKTSATVICRKNASISVRAQDRYYSSSWSEWASVPCSGGGGSGGGGSGGGGSRNLPVATPDPGMFPCLHHSQNLLRAVSNMLQKARQTLEFYPCTSEEIDHEDITKDKTSTVEACLPLELTKNESCLNSRETSFITNGSCLASRKTSFMMALCLSSIYEDLKMYQVEFKTMNAKLLMDPKRQIFLDQNMLAVIDELMQALNFNSETVPQKSSLEEPDFYKTKIKLCILLHAFRIRAVTIDRVMSYLNAS light: not shown
0.267 | 3.19e-05 | 120000 | T1.11 (anti-hu FAP/anti-hu FAP-hu IL-12 mut2, hu IgG1 DANG (2 + 1)) (antibody, single-chain IL-12 mut2 at the C-terminus of the hole heavy chain) heavy 1: QVQLVQSGAEVKKPGASVKVSCKTSRYTFTEYTIHWVRQAPGQRLEWIGGINPNNGIPNYNQKFKGRVTITVDTSASTAYMELSSLRSEDTAVYYCARRRIAYGYDEGHAMDYWGQGTLVTVSSASTKGPSVFPLAPSSKSTSGGTAALGCLVKDYFPEPVTVSWNSGALTSGVHTFPAVLQSSGLYSLSSVVTVPSSSLGTQTYICNVNHKPSNTKVDKKVEPKSCDKTHTCPPCPAPELLGGPSVFLFPPKPKDTLMISRTPEVTCVVVAVSHEDPEVKFNWYVDGVEVHNAKTKPREEQYGSTYRVVSVLTVLHQDWLNGKEYKCKVSNKALPAPIEKTISKAKGQPREPQVYTLPPSRDELTKNQVSLWCLVKGFYPSDIAVEWESNGQPENNYKTTPPVLDSDGSFFLYSKLTVDKSRWQQGNVFSCSVMHEALHNHYTQKSLSLSPGK heavy 2: QVQLVQSGAEVKKPGASVKVSCKTSRYTFTEYTIHWVRQAPGQRLEWIGGINPNNGIPNYNQKFKGRVTITVDTSASTAYMELSSLRSEDTAVYYCARRRIAYGYDEGHAMDYWGQGTLVTVSSASTKGPSVFPLAPSSKSTSGGTAALGCLVKDYFPEPVTVSWNSGALTSGVHTFPAVLQSSGLYSLSSVVTVPSSSLGTQTYICNVNHKPSNTKVDKKVEPKSCDKTHTCPPCPAPELLGGPSVFLFPPKPKDTLMISRTPEVTCVVVAVSHEDPEVKFNWYVDGVEVHNAKTKPREEQYGSTYRVVSVLTVLHQDWLNGKEYKCKVSNKALPAPIEKTISKAKGQPREPQVYTLPPSRDELTKNQVSLSCAVKGFYPSDIAVEWESNGQPENNYKTTPPVLDSDGSFFLVSKLTVDKSRWQQGNVFSCSVMHEALHNHYTQKSLSLSPGGGGGSGGGGSGGGGSIWELKKDVYVVELDWYPDAPGEMVVLTCDTPEEDGITWTLDQSSEVLGSGKTLTIQVKEFGDAGQYTCHKGGEVLSHSLLLLHKKEDGIWSTDILKDQKEPKNKTFLRCEAKNYSGRFTCWWLTTISTDLTFSVKSSRGSSDPQGVTCGAATLSAERVRGDNKEYEYSVECQEDSACPAAEESLPIEVMVDAVHKLKYENYTSSFFIRDIIKPDPPKNLQLKPLKNSRQVEVSWEYPDTWSTPHSYFSLTFCVQVQGASAREAADRVFTDKTSATVICRKNASISVRAQDRYYSSSWSEWASVPCSGGGGSGGGGSGGGGSRNLPVATPDPGMFPCLHHSQNLLRAVSNMLQKARQTLEFYPCTSEEIDHEDITKDKTSTVEACLPLELTKNESCLNSRETSFITNGSCLASRKTSFMMALCLSSIYEDLKMYQVEFKTMNAKLLMDPKRQIFLDQNMLAVIDELMQALNFNSETVPQKSSLEEPDFYKTKIKLCILLHAFRIRAVTIDRVMSYLNAS light: not shown
